Measurements as given in article PMC6765112, “Specificity of MYB interactions relies on motifs in ordered and disordered contexts” (Nucleic Acids Research, 2019).
“Also recorded” adds a separate entry of the source. Like-named read-outs stand apart in the source and are kept apart here. Ends that are not written are not given here. Peptide text beside a SMILES is read from it. * marks the point of attachment. Biotin = O=C1N[C@H]2[C@H](CS[C@H]2CCCCC(=O)*)N1

Key:
[1] = target: T1, MYC4 N-terminal domain (L55-N253; MYC4Nt) (Arabidopsis thaliana, UniProt O49687); test: Bio-layer interferometry, binding of MYC4Nt to immobilised biotinylated MIM peptides; details: for binding of MYC4Nt to immobilised peptide (in words): BLI, peptide immobilised on streptavidin biosensor, MYC4Nt dilution series
T1 construct: MYC4 N-terminal domain (L55-N253; MYC4Nt) using a C-terminal 6×His tag; made in house; host or cells: Escherichia coli BL21(DE3), pET52u plasmid
T1 sequence (O49687 55-253): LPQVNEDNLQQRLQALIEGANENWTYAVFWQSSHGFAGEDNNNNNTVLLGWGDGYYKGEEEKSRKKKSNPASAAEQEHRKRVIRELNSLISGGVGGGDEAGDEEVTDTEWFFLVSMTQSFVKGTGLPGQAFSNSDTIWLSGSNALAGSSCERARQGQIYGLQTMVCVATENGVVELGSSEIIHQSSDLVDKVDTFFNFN
Method: Single colonies of freshly transformed Escherichia coli BL21(DE3), carrying the pET52u plasmid for expressing MYC4 N-terminal domain (AA55-253; MYC4Nt) with a C-terminal 6×His tag, were inoculated in LB with ampicillin and grown overnight (37°C, 200 RPM). The next day, the culture was diluted to OD600 = 0.2 with cold (4°C) LB with ampicillin and grown at 18°C (100 RPM) in a baffled Erlenmeyer flask until OD600 = 1.0 (∼7.5 h). Protein expression was induced by addition of 0.1 mM IPTG, and the cultures grew for further 18 h at 18°C (100 RPM), before harvesting the cells by centrifugation (4000 g, 20 min), and storing the bacterial pellet at −20°C until protein extraction and purification. For extraction and purification, the bacterial pellet was resuspended in BugBuster Master Mix (Merck Millipore), 2.5 ml per 50 ml bacterial culture, containing 1× ethylenediaminetetraacetic acid-free complete protease inhibitor cocktail (Roche) and 1 mM dithiothreitol (DTT). Lysis proceeded by slow end-over-end rotation at room temperature for 30 min, and the lysate was cleared by centrifugation (20.000 g, 20 min, 4°C). The supernatant was diluted five times with His binding buffer (20 mM sodium phosphate, 500 mM NaCl, 40 mM imidazole, 1 mM DTT, pH 7.4) and filtered through a 0.2-micron filter using a syringe, before applying to a HisTrap HP 5 ml (GE Healthcare) IMAC column charged with Ni(II)Cl2. After washing thoroughly, bound protein was eluted with a linear buffer gradient to elution buffer (His binding buffer with 500 mM imidazole) over 20 column volumes, and 1.9 ml fractions collected in a 96-deepwell plate. Based on absorbance at 280 nm during elution, fractions were selected for analysis by sodium dodecyl sulphate-polyacrylamide gel electrophoresis and those fractions showing only the band of the recombinant protein at 22.7 kDa were pooled and concentrated using 3-kDa cut-off PES membrane ultrafiltration centrifugal tubes (Thermo Scientific™ Pierce). Concentrated protein was centrifuged at 20 000 g, 4°C for 10 min before being dialysed overnight to PBS pH 7.4 with 1 mM DTT. Protein concentration was estimated using the Lambert–Beer law based on absorbance at 280 nm, after blanking with the dialysis buffer (dialysate) and protein was stored in aliquots at −80°C. Aliquots of dialysate were stored at −20°C.
Biotinylated peptides were synthesized by TAG Copenhagen A/S (Copenhagen, Denmark). Lyophilized peptide was resuspended in H2O to a concentration of 400–500 μM and stored in aliquots at −80°C. […] Binding was measured with a BLItz Bio-Layer Interferometer (Pall ForteBio) using the advanced kinetics program in the BLItz Pro 1.2 software. […]

GL3 [2] = details: ref [32]; cited from earlier work
From the text: (§1) To identify interaction sites mediating specific MYB–MYC complex formation, we selected two TFs from each family. These were MYB28 and MYB29 from MYB subgroup 12, and two of their partner bHLH TFs, MYC3 and MYC4. To define the region mediating the interactions we applied a chemically inducible dimerization split-ubiquitin system ([35]). […] As controls, we included the interaction between GL3 and MYB75, where a fragment c ...

GL3 [3] = test: Split-ubiquitin assay, GL3 as bait; format: cell-based, Arabidopsis thaliana; details: yeast, SD-AHLW growth
Method: (§2) The rapamycin-compatible yeast strain NMY51 TOR1-1 Δfpr1 ([35]) was transformed according to DUALhunter™ kit instructions (Dualsystems biotech). Briefly, overnight 2×YPAD cultures were diluted to OD600 = 0.2, and incubated at 30°C, 150 RPM for 4–6 h in 2×YPAD, before harvesting the cells by centrifugation at 700 g for 5 min. The cells were washed with H2O, then 0.1 M LiOAc, before resuspending in 0.1 M LiOAc with 15% glycerol. The competent cells were then aliquoted and stored at −80°C until transformation. For double transformation with bait and prey plasmids, competent cells were thawed on ice, and mixed with transformation mix (240 μl 50% PEG-3350, 35 μl 1 M LiOAc and 25 μl 2 mg/ml ssDNA per transformation) and 200 ng of each plasmid, before being exposed to a 42°C heat shock in a water bath for 45 min. The cells were then chilled on ice for a few minutes, sedimented by centrifugation (3000 g, 1 min), resuspended in sterile H2O, plated on SD-LW plates and grown at 30°C for 2–3 days.
(§3) For drop tests, cells from three individual colonies of each bait/prey combination were grown overnight in liquid SD-LW media. Next day, culture densities were normalized to OD600 = 0.05, dilution series (OD600 = 0.05, OD600 = 0.005, OD600 = 0.0005 and OD600 = 0.00005) were spotted on square plates (SD-LW, SD-AHLW and SD-AHLW+Rapa) and grown for 2 days at 30°C before taking pictures.
as §1, with “This is used as an in-built positive control for correct expression and functionality of” for “As controls, we included”, “prey fusion protein” for “interaction between GL3”, “thereby reduces the incidence of false negatives.” for “MYB75, where a fragment c ...”

MYC3 = test: Split-ubiquitin assay, MYC3 as bait; format: cell-based, Arabidopsis thaliana; details: yeast, SD-AHLW growth
Method: as §2, §3
as §1, with “This is used as an in-built positive control for correct expression and functionality of” for “As controls, we included”, “prey fusion protein” for “interaction between GL3”, “thereby reduces the incidence of false negatives.” for “MYB75, where a fragment c ...”

MYC4 = test: Split-ubiquitin assay, MYC4 as bait; format: cell-based, Arabidopsis thaliana; details: yeast, SD-AHLW growth
Method: as §2, §3
as §1, with “This is used as an in-built positive control for correct expression and functionality of” for “As controls, we included”, “prey fusion protein” for “interaction between GL3”, “thereby reduces the incidence of false negatives.” for “MYB75, where a fragment c ...”

[4] = target: T2, MYC4 N-terminal domain (L55-N253) (Arabidopsis thaliana, UniProt O49687 55-253); test: BLI
T2 chain: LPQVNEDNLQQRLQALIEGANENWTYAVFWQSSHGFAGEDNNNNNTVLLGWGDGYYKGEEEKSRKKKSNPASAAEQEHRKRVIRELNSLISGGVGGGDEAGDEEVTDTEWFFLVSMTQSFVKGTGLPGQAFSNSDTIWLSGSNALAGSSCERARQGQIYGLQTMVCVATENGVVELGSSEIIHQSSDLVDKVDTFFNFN

CSCC[C@H](NC(=O)[C@H](CO)NC(=O)[C@H](CO)NC(=O)[C@H](C)NC(=O)[C@H](CCCNC(=N)N)NC(=O)[C@H](C)NC(=O)[C@H](C)NC(=O)[C@@H](NC(=O)[C@H](CCCCN)NC(=O)[C@H](CC(N)=O)NC(=O)[C@H](CC(C)C)NC(=O)[C@H](CC(C)C)NC(=O)[C@H](CCCCN)NC(=O)[C@H](CO)NC(=O)[C@@H](NC(=O)[C@H](CO)NC(=O)[C@H](CO)NC(=O)[C@H](CO)NC(=O)[C@H](CCCNC(=N)N)NC(=O)[C@H](CCCCN)NC(=O)[C@H](Cc1ccccc1)NC(=O)CCCC[C@@H]1SC[C@@H]2NC(=O)N[C@@H]21)[C@@H](C)O)C(C)C)C(=O)NCC(=O)O [WT-MIM] (Biotin-FKRSSSTSKLLNKVAARASSMG-OH)
binding of MYC4Nt to immobilised peptide (in words) [1]: binding of MYC4Nt was observed even at sub micro molar concentrations; also recorded: stronger binding of the WT-MIM peptide compared to that of the L190V-MIM peptide

L190A-MIM: N-terminally biotinylated 22-residue peptide comprising the L190A MIM sequence of MYB29 (F180-G201) (Biotin-FKRSSSTSKLANKVAARASSMG)
binding of MYC4Nt to immobilised peptide (in words) [1]: Fit cannot converge; also recorded: an extremely weak response was seen only at high (>100 μM) concentrations of MYC4Nt; also recorded: the fit did not converge; also recorded: unable to detect binding

CSCC[C@H](NC(=O)[C@H](CO)NC(=O)[C@H](CO)NC(=O)[C@H](C)NC(=O)[C@H](CCCNC(=N)N)NC(=O)[C@H](C)NC(=O)[C@H](C)NC(=O)[C@@H](NC(=O)[C@H](CCCCN)NC(=O)[C@H](CC(N)=O)NC(=O)[C@@H](NC(=O)[C@H](CC(C)C)NC(=O)[C@H](CCCCN)NC(=O)[C@H](CO)NC(=O)[C@@H](NC(=O)[C@H](CO)NC(=O)[C@H](CO)NC(=O)[C@H](CO)NC(=O)[C@H](CCCNC(=N)N)NC(=O)[C@H](CCCCN)NC(=O)[C@H](Cc1ccccc1)NC(=O)CCCC[C@@H]1SC[C@@H]2NC(=O)N[C@@H]21)[C@@H](C)O)C(C)C)C(C)C)C(=O)NCC(=O)O [L190V-MIM] (Biotin-FKRSSSTSKLVNKVAARASSMG-OH)
binding of MYC4Nt to immobilised peptide (in words) [1]: a strong binding signal, but at higher concentrations of MYC4Nt (>10 μM), than was necessary for the WT-MIM | affinity for MYC4Nt weaker than WT-MIM peptide ([1]; estimated, relative to WT-MIM peptide): ~10 fold

B1: MYB75 DBD: fragment comprising the MYB DBD (residues M1-P114) (protein, UniProt Q9FE25 1-114, looked up, fragment)
chain: MEGSSKGLRKGAWTTEEDSLLRQCINKYGEGKWHQVPVRAGLNRCRKSCRLRWLNYLKPSIKRGKLSSDEVDLLLRLHRLLGNRWSLIAGRLPGRTANDVKNYWNTHLSKKHEP
interaction with GL3 (in words) (GL3 [2]): sufficient for this interaction | interaction with GL3 (in words) (GL3 [3]): results in growth on SD-AHLW plates

B2: MYB75: full-length MYB75 (MYB subgroup 6), control prey for GL3 (protein)
chain: MEGSSKGLRKGAWTTEEDSLLRQCINKYGEGKWHQVPVRAGLNRCRKSCRLRWLNYLKPSIKRGKLSSDEVDLLLRLHRLLGNRWSLIAGRLPGRTANDVKNYWNTHLSKKHEPCCKIKMKKRDITPIPTTPALKNNVYKPRPRSFTVNNDCNHLNAPPKVDVNPPCLGLNINNVCDNSIIYNKDKKKDQLVNNLIDGDNMWLEKFLEESQEVDILVPEATTTEKGDTLAFDVDQLWSLFDGETVKFD
modifications: left off: NubG and FRB (from the vector pFRB), end not stated, kept
notes: full-length MYB75 (MYB subgroup 6), control prey for GL3
interaction with GL3 (in words) (GL3 [3]): results in growth on SD-AHLW plates

B3: N191A: mutated MYB29 (AAs 120-222); MIM sequence - S TS KL LAK VA ARA SS - (protein)
chain: GIDPVTHKPLAYDSNPDEQSQSGSISPKSLPPSSSKNVPEITSSDETPKYDASLSSKKRCFKRSSSTSKLLAKVAARASSMGTILGASIEGTLISSTPLSSCL
modifications: left off: NubG and FRB (from the vector pFRB), end not stated, kept
interaction with MYC3 (in words) (MYC3): abolished the interaction | interaction with MYC4 (in words) (MYC4): abolished the interaction

B4: A194G: mutated MYB29 (AAs 120-222); MIM sequence - S TS KL LNK VG A RA SS - (protein)
chain: GIDPVTHKPLAYDSNPDEQSQSGSISPKSLPPSSSKNVPEITSSDETPKYDASLSSKKRCFKRSSSTSKLLNKVGARASSMGTILGASIEGTLISSTPLSSCL
modifications: left off: NubG and FRB (from the vector pFRB), end not stated, kept
interaction with MYC3 (in words) (MYC3): did not abolish the interaction | interaction with MYC4 (in words) (MYC4): did not abolish the interaction

B5: A194L: mutated MYB29 (AAs 120-222); MIM sequence - S TS KL LNK VL ARA SS - (protein)
chain: GIDPVTHKPLAYDSNPDEQSQSGSISPKSLPPSSSKNVPEITSSDETPKYDASLSSKKRCFKRSSSTSKLLNKVLARASSMGTILGASIEGTLISSTPLSSCL
modifications: left off: NubG and FRB (from the vector pFRB), end not stated, kept
interaction with MYC3 (in words) (MYC3): abolished the interaction with both MYC3 and MYC4 | interaction with MYC4 (in words) (MYC4): abolished the interaction with both MYC3 and MYC4

B6: L190V-MIM peptide (F180-G201 of MYB29, L190V) (peptide)
peptide: Biotin-FKRSSSTSKLVNKVAARASSMG
Kd [4]: 33 µM
